Consider 15 molecules from US20110263827A1 (AbbVie / Abbott, published 2011).

Values joined by “and” are separate entries in the source; they are usually repeats but may differ in a detail not shown here. Equal entries are not always repeated.

For assay [1], the target named is T1, ErbB3 (UniProt P21860 20-643, limits assumed, biotinylated).
T1 construct: ELISA antigen
In words: direct bind ELISA, ref Ab. (An ELISA detects its analyte on a solid surface through an enzyme-linked reagent.)

Assay [2] deals with T2, PLGF (UniProt P49763-2 21-149, limits assumed, biotinylated).
T2 construct: ELISA antigen; also called P1GF
T2 sequence (looked up): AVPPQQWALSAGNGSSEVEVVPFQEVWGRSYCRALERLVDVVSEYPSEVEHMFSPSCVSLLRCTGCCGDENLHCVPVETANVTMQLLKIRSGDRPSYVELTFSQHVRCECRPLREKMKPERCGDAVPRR
In words: direct bind ELISA, ref Ab.

Assay [3] deals with T3, EGFR (UniProt P00533 25-645, limits assumed, biotinylated).
T3 construct: ELISA antigen; construct not described
In words: direct bind ELISA, C-term VD.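 Note: ELISA with antibody or DVD-Ig preparations applied to target antigen-coated plates for 1 h at room temperature, TMB colour development, absorbance read at 450 nm.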

The target of assay [4] is T2, PLGF. In words: direct bind ELISA, N-term VD.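 Note: antibody or DVD-Ig preparations bound to immobilized target antigen on ELISA plates, 1 h at room temperature, TMB detection read as absorbance at 450 nm.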
For assay [5], the target named is RON (UniProt Q04912 25-571, biotinylated). In words: direct bind ELISA, ref Ab.
Assay [6] concerns the target T4, DLL-4 (UniProt Q9NR61 27-524, limits assumed, biotinylated).
T4 construct: ELISA antigen
In words: direct bind ELISA, ref Ab.

Assay [7] deals with T5, HGF (UniProt P14210 32-728, limits assumed, biotinylated).
T5 construct: ELISA antigen
In words: direct bind ELISA, ref Ab.

The target of assay [8] is T2, PLGF. In words: direct bind ELISA, C-term VD.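 Note: ELISA with antibody or DVD-Ig preparations applied to target antigen-coated plates for 1 h at room temperature, TMB colour development, absorbance read at 450 nm.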
Assay [9] addresses T3, EGFR. In words: direct bind ELISA, N-term VD.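 Note: antibody or DVD-Ig preparations bound to immobilized target antigen on ELISA plates, 1 h at room temperature, TMB detection read as absorbance at 450 nm.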
Assay [10] concerns the target T6, VEGF (UniProt P15692-4 27-191, limits assumed, biotinylated).
T6 construct: ELISA antigen
In words: direct bind ELISA, ref Ab.

For assay [11], the target named is T7, IGF1R (UniProt P08069 31-932, limits assumed, biotinylated).
T7 construct: ELISA antigen
In words: direct bind ELISA, ref Ab.

B1: AB062 (antibody, V domains shown)
VH: QVQLQQWGAGLLKPSETLSLTCAVYGGSFSGYYWSWIRQPPGKGLEWIGEINHSGSTNYNPSLKSRVTISVETSKNQFSLKLSSVTAADTAVYYCARDKWTWYFDLWGRGTLVTVSS
VL: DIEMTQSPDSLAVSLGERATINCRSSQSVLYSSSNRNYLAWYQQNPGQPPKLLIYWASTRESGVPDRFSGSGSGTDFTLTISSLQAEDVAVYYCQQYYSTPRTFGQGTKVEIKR
notes: parent antibody
In the case of B1, the EC50 in assay [1] was 1.19 nM and 1.36 nM and 1.34 nM.

B2: AB047 (antibody, V domains shown)
VH: QVQLQQSGAELVKPGASVKISCKASGYTFTDYYINWVKLAPGQGLEWIGWIYPGSGNTKYNEKFKGKATLTIDTSSSTAYMQLSSLTSEDTAVYFCVRDSPFFDYWGQGTLLTVSS
VL: DIVLTQSPDSLAVSLGERVTMNCKSSQSLLNSGMRKSFLAWYQQKPGQSPKLLIYWASTRESGVPDRFTGSGSGTDFTLTISSVQAEDVAVYYCKQSYHLFTFGSGTKLEIKR
notes: parent antibody; also called PLGF; P1GF (ThromboGenix)
Consider B2, for which, in assay [2], the EC50 was 0.21 nM and 0.25 nM.

B3: DVD784 (bispecific antibody)
VH: QVQLQQSGAELVKPGASVKISCKASGYTFTDYYINWVKLAPGQGLEWIGWIYPGSGNTKYNEKFKGKATLTIDTSSSTAYMQLSSLTSEDTAVYFCVRDSPFFDYWGQGTLLTVSSASTKGPSVFPLAPQVQLQESGPGLVKPSQTLSLTCTVSGYSISSDFAWNWIRQPPGKGLEWMGYISYSGNTRYQPSLKSRITISRDTSKNQFFLKLNSVTAADTATYYCVTAGRGFPYWGQGTLVTVSS
VL: DIVLTQSPDSLAVSLGERVTMNCKSSQSLLNSGMRKSFLAWYQQKPGQSPKLLIYWASTRESGVPDRFTGSGSGTDFTLTISSVQAEDVAVYYCKQSYHLFTFGSGTKLEIKRTVAAPSVFIFPPDIQMTQSPSSMSVSVGDRVTITCHSSQDINSNIGWLQQKPGKSFKGLIYHGTNLDDGVPSRFSGSGSGTDYTLTISSLQPEDFATYYCVQYAQFPWTFGGGTKLEIKR
notes: DVD-Ig; HC L, LC L; variable parts only
Regarding B3, the EC50 in assay [3] amounted to 41.4 nM; in assay [4], 0.26 nM.

B4: DVD844 (bispecific antibody)
VH: QVQLQQSGAELVKPGASVKISCKASGYTFTDYYINWVKLAPGQGLEWIGWIYPGSGNTKYNEKFKGKATLTIDTSSSTAYMQLSSLTSEDTAVYFCVRDSPFFDYWGQGTLLTVSSASTKGPQVQLQESGPGLVKPSQTLSLTCTVSGYSISSDFAWNWIRQPPGKGLEWMGYISYSGNTRYQPSLKSRITISRDTSKNQFFLKLNSVTAADTATYYCVTAGRGFPYWGQGTLVTVSS
VL: B3 VL
notes: DVD-Ig; HC S, LC L; variable parts only
For the molecule B4, the half-maximal effective concentration (EC50) came out at 45.5 nM in [3] and 0.23 nM in assay [4].

B5: DVD814 (bispecific antibody)
VH: B3 VH
VL: DIVLTQSPDSLAVSLGERVTMNCKSSQSLLNSGMRKSFLAWYQQKPGQSPKLLIYWASTRESGVPDRFTGSGSGTDFTLTISSVQAEDVAVYYCKQSYHLFTFGSGTKLEIKRTVAAPDIQMTQSPSSMSVSVGDRVTITCHSSQDINSNIGWLQQKPGKSFKGLIYHGTNLDDGVPSRFSGSGSGTDYTLTISSLQPEDFATYYCVQYAQFPWTFGGGTKLEIKR
notes: DVD-Ig; HC L, LC S; variable parts only
Take B5: the figures for the concentration for a half-maximal effect (EC50) in [3] and in assay [4] were 50.4 nM and 0.23 nM, respectively.

B6: AB005 (antibody, V domains shown)
VH: EVQLVQSGGGLVKPGGSLRLSCAASGFTFSSYAMHWVRQAPGKGLEWVAVISYDGSNKYYADSVKGRFTISRDNSKNTLYLQMNSLRAEDTAVYYCARFSGWPNNYYYYGMDVWGQGTTVTVSS
VL: DVVMTQSPLSLPVTPGEPASISCRSSQSLLHSNGFNYVDWYLQKPGQSPHLLIYFGSYRASGVPDRFSGSGSGTDFTLKISRVEAEDVGVYYCMQALQTPPWTFGQGTKVEIRR
notes: parent antibody; also called RON
With B6, the EC50 in [5] is 0.19 nM and 0.24 nM.

B7: AB015 (antibody, V domains shown)
VH: EVQLVESGGGLVQPGGSLRLSCAASGFTFTDNWISWVRQAPGKGLEWVGYISPNSGFTYYADSVKGRFTISADTSKNTAYLQMNSLRAEDTAVYYCARDNFGGYFDYWGQGTLVTVSS
VL: DIQMTQSPSSLSASVGDRVTITCRASQDVSTAVAWYQQKPGKAPKLLIYSASFLYSGVPSRFSGSGSGTDFTLTISSLQPEDFATTYYCQQSYTGTVTFGQGTKVEIKR
notes: parent antibody; also called DLL-4
Take B7: the EC50 in assay [6] is 0.45 nM and 0.4 nM.

B8: AB067 (antibody, V domains shown)
VH: EVQLLESGGGLVQPGGSLRLSCAASGFTFSHYVMAWVRQAPGKGLEWVSSISSSGGWTLYADSVKGRFTISRDNSKNTLYLQMNSLRAEDTAVYYCTRGLKMATIFDYWGQGTLVTVSS
VL: QSALTQPASVSGSPGQSITISCTGTSSDVGSYNVVSWYQQHPGKAPKLIIYEVSQRPSGVSNRFSGSKSGNTASLTISGLQTEDEADYYCCSYAGSSIFVIFGGGTKVTVLG
notes: parent antibody
In the case of B8, the EC50 in [1] is 1.4 nM and 2.03 nM.

B9: AB012 (antibody, V domains shown)
VH: QVQLVESGGGLVKPGGSLRLSCAASGFTFSDYYMSWIRQAPGKGLEWVSYISSSGSTIYYADSVKGRFTISRDNAKNSLYLQMNSLRAEDTAVYYCARDEYNSGWYVLFDYWGQGTLVTVSS
VL: DIQMTQSPSSVSASVGDRVTITCRASQGISSWLAWYQQKPGKAPNLLIYEASSLQSGVPSRFGGSGSGTDFTLTISSLQPEDFATYYCQQANGFPWTFGQGTKVEIKR
notes: parent antibody; also called HGF
As for B9, in assay [7], the EC50 is 0.15 nM and 0.19 nM.

B10: DVD342 (bispecific antibody)
VH: B4 VH
VL: B5 VL
notes: DVD-Ig; HC S, LC S; variable parts only
Regarding B10, the EC50 in [3] came to 120 nM; in [4], 0.2 nM.

B11: DVD843 (bispecific antibody)
VH: QVQLQESGPGLVKPSQTLSLTCTVSGYSISSDFAWNWIRQPPGKGLEWMGYISYSGNTRYQPSLKSRITISRDTSKNQFFLKLNSVTAADTATYYCVTAGRGFPYWGQGTLVTVSSASTKGPQVQLQQSGAELVKPGASVKISCKASGYTFTDYYINWVKLAPGQGLEWIGWIYPGSGNTKYNEKFKGKATLTIDTSSSTAYMQLSSLTSEDTAVYFCVRDSPFFDYWGQGTLLTVSS
VL: DIQMTQSPSSMSVSVGDRVTITCHSSQDINSNIGWLQQKPGKSFKGLIYHGTNLDDGVPSRFSGSGSGTDYTLTISSLQPEDFATYYCVQYAQFPWTFGGGTKLEIKRTVAAPSVFIFPPDIVLTQSPDSLAVSLGERVTMNCKSSQSLLNSGMRKSFLAWYQQKPGQSPKLLIYWASTRESGVPDRFTGSGSGTDFTLTISSVQAEDVAVYYCKQSYHLFTFGSGTKLEIKR
notes: as for B4
With B11, the EC50 worked out at 0.37 nM in assay [8] and 3.65 nM in assay [9].

B12: DVD341 (bispecific antibody)
VH: B11 VH
VL: DIQMTQSPSSMSVSVGDRVTITCHSSQDINSNIGWLQQKPGKSFKGLIYHGTNLDDGVPSRFSGSGSGTDYTLTISSLQPEDFATYYCVQYAQFPWTFGGGTKLEIKRTVAAPDIVLTQSPDSLAVSLGERVTMNCKSSQSLLNSGMRKSFLAWYQQKPGQSPKLLIYWASTRESGVPDRFTGSGSGTDFTLTISSVQAEDVAVYYCKQSYHLFTFGSGTKLEIKR
notes: as for B10
Take B12: the EC50 was 0.74 nM in assay [8] and 3.41 nM in [9].

B13: AB071 (antibody, V domains shown)
VH: EVQLVESGGGLVQPGGSLRLSCAASGFTINASWIHWVRQAPGKGLEWVGAIYPYSGYTNYADSVKGRFTISADTSKNTAYLQMNSLRAEDTAVYYCARWGHSTSPWAMDYWGQGTLVTVSS
VL: DIQMTQSPSSLSASVGDRVTITCRASQVIRRSLAWYQQKPGKAPKLLIYAASNLASGVPSRFSGSGSGTDFTLTISSLQPEDFATYYCQQSNTSPLTFGQGTKVEIKR
notes: parent antibody
Consider B13, for which the concentration giving a half-maximal response (EC50) in assay [10] was 1.68 nM and 1.57 nM.

B14: AB063 (antibody, V domains shown)
VH: EVQLVESGGGLVQPGGSLRLSCAASGFTFSIYSMNWVRQAPGKGLEWVSYISSSSSTIYYADSVKGRFTISRDNAKNSLYLQMNSLRDEDTAVYYCARDRGDFDAFDIWGQGTMVTVSS
VL: DIQMTQSPSSLSASVGDRVTITCQASQDITNYLNWYQQKPGKAPKLLIYDASNLETGVPSRFSGSGSGTDFTFTISSLQPEDIATYNCQQCENFPITFGQGTRLEIKR
notes: parent antibody
Turning to B14, the EC50 in assay [1] is 0.86 nM and 1.11 nM.

B15: AB011 (antibody, V domains shown)
VH: EVQLLESGGGLVQPGGSLRLSCTASGFTFSSYAMNWVRQAPGKGLEWVSAISGSGGTTFYADSVKGRFTISRDNSRTTLYLQMNSLRAEDTAVYYCAKDLGWSDSYYYYYGMDVWGQGTTVTVSS
VL: DIQMTQFPSSLSASVGDRVTITCRASQGIRNDLGWYQQKPGKAPKRLIYAASRLHRGVPSRFSGSGSGTEFTLTISSLQPEDFATYYCLQHNSYPCSFGQGTKLEIKR
notes: parent antibody; also called IGF1R
Consider B15, for which the EC50 in [11] was 0.24 nM and 0.26 nM.

One may read the EC50 as the concentration that produces a half-maximal response. A low value points to greater potency.
